In the supplement of paper PMC10899765:

Columns and labels:
Details in all cases: 20 nM; 72 h
[1] = tested on: MCF10A; assay: one-nucleolus phenotype percent effect (relative to siNT 0% and siNOL11 100%); higher = more cells with one nucleolus (ribosome biogenesis inhibition)
Protocol: (§1)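 After 72 h, cells were fixed and stained with Hoechst and anti-fibrillarin, and nucleoli per nucleus were counted with CellProfiler. Values are plate-adjusted percent effect for the one-nucleolus and 5+ nucleoli phenotypes, normalised to siNT (0%) and to the positive controls siNOL11 or siKIF11 (100%), as the mean of biological triplicates. Percent viability is the nuclei count relative to siNT.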

[2] = tested on: MCF10A; assay: 5+ nucleoli phenotype percent effect, hitpick validation (relative to siNT 0% and siKIF11 100%); higher = more cells with five or more nucleoli
Protocol: (§2)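 Primary screen hits (microRNA mimics) were re-picked and rescreened for nucleolar number in MCF10A cells (hitpick validation; percent effect relative to the siNT and siNOL11/siKIF11 controls). A secondary screen measured nucleolar rRNA biogenesis inhibition: after 72 h of transfection at 20 nM, cells were labelled 1 h with 1 mM 5-EU and nucleolar 5-EU signal was quantified, normalised to siNT (0%) and siPOLR1A (100%). Means are over n=5 (MCF10A) or n=2 (RPE-1, HeLa) biological replicates.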

[3] = tested on: MCF10A; assay: 5+ nucleoli phenotype percent effect (relative to siNT 0% and siKIF11 100%); higher = more cells with five or more nucleoli
Protocol: as §1

[4] = tested on: MCF10A; assay: nucleolar rRNA biogenesis percent inhibition (5-EU; siNT 0%, siPOLR1A 100%); higher = stronger inhibition of nucleolar rRNA biogenesis
Protocol: as §2

[5] = tested on: MCF10A; assay: percent viability (nuclei count relative to siNT); higher = more viable cells
Protocol: as §1

[6] = tested on: MCF10A; assay: one-nucleolus phenotype percent effect, hitpick validation (relative to siNT 0% and siNOL11 100%); higher = more cells with one nucleolus
Protocol: as §2

[7] = tested on: hTERT RPE-1; assay: nucleolar rRNA biogenesis percent inhibition (5-EU; siNT 0%, siPOLR1A 100%); higher = stronger inhibition of nucleolar rRNA biogenesis
Protocol: as §2

[8] = tested on: HeLa; assay: as above
Protocol: as §2

| Sequence | one-nucleolus phenotype percent effect [1] | 5+ nucleoli phenotype percent effect [2] | 5+ nucleoli phenotype percent effect [3] | nucleolar rRNA biogenesis percent inhibition [4] | percent viability [5] | one-nucleolus phenotype percent effect [6] | nucleolar rRNA biogenesis percent inhibition [7] | nucleolar rRNA biogenesis percent inhibition [8] |
| --- | --- | --- | --- | --- | --- | --- | --- | --- |
| CCGUCGCCGCCACCCGAGCCG [hsa-miR-1181] | -33.1% | 40.2% | 96.7% | 86.9% | 128% | -55.6% | – | – |
| CGCGCCGGGCCCGGGUU [hsa-miR-3195] | 82.1% | -15.6% | -31.1% | 51.6% | 19.4% | 196% | – | – |
| CGGCGGGGACGGCGAUUGGUC [hsa-miR-1908-5p] | 93.7% | -7.82% | -47.2% | 90.6% | 40.6% | 128% | 113% | 68.5% |
| CUAGGGGGUUUGCCCUUG [hsa-miR-4278] | 67.1% | -14.3% | -35.5% | 45.6% | 13.5% | 151% | – | – |
| CUCGGCGCGGGGCGCGGGCUCC [hsa-miR-1469] | 74.3% | -13.8% | -35.5% | 96.7% | 30% | 158% | – | – |
| CUCUCCCUCUUUACCCACUAG [hsa-miR-6867-3p] | -35% | 49.1% | 133% | 71.1% | 61.8% | -40.4% | – | – |
| CUCUCCUCCCGGCUUC [hsa-miR-4279] | 87.9% | -6.3% | -34.9% | 26.8% | 14.1% | 188% | – | – |
| CUCUUGAGGGAAGCACUUUCUGU [hsa-miR-526b-5p] | 71.3% | -6.22% | -54.5% | 130% | 28.7% | 81.9% | 75.9% | 81.5% |
| CUGCCAAUUCCAUAGGUCACAG [hsa-miR-192-3p] | 70.5% | -12.3% | -40.8% | 67.1% | 62.7% | 137% | 136% | 37.7% |
| CUGGCGGAGCCCAUUCCAUGCCA [hsa-miR-4730] | 118% | -12.7% | -43.2% | 91.1% | 18.2% | 230% | – | – |
| CUGGCGGCUGUGUCUUCACAG [hsa-miR-6770-3p] | 110% | 1.2% | -40.2% | -8.82% | 18.4% | -1.66% | – | – |
| GAGCAAUGUAGGUAGACUGUUU [hsa-miR-3908] | 89.1% | -5.96% | -34.4% | 7.34% | 19.8% | 166% | – | – |
| GAGCAGGCGAGGCUGGGCUGAA [hsa-miR-4690-5p] | 70.8% | -12.8% | -41.1% | 101% | 11.1% | 176% | – | – |
| GAGGGCAUGCGCACUUUGUCC [hsa-miR-4761-3p] | 85.1% | 14.2% | -23.9% | 76% | 20% | 86.5% | – | – |
| GAGGGCGGGUGGAGGAGGA [hsa-miR-3141] | 72.7% | -4.23% | -29.5% | 51.1% | 20.1% | 129% | – | – |
| GGCGACAAAACGAGACCCUGUC [hsa-miR-1273c] | 106% | -8.2% | -32.6% | 31.6% | 17.4% | 205% | – | – |

| Sequence | one-nucleolus phenotype percent effect [1] | 5+ nucleoli phenotype percent effect [2] | 5+ nucleoli phenotype percent effect [3] | nucleolar rRNA biogenesis percent inhibition [4] | percent viability [5] | one-nucleolus phenotype percent effect [6] | nucleolar rRNA biogenesis percent inhibition [7] | nucleolar rRNA biogenesis percent inhibition [8] |
| --- | --- | --- | --- | --- | --- | --- | --- | --- |
| GGCUCCUCCUCUCAGGAUGUG [hsa-miR-4268] | -15.6% | 51.9% | 82.4% | 133% | 41.5% | -21.2% | – | – |
| GGCUGGGUGCUCUUGUGCAGU [hsa-miR-5589-5p] | 71% | 21.5% | -4.52% | 70% | 17.4% | 92.2% | – | – |
| GUGUGUGGAAAUGCUUCUGC [hsa-miR-147a] | 95.9% | 9.08% | -15.3% | 61.8% | 18.3% | 103% | – | – |
| UAGGAGCUCAACAGAUGCCUGUU [hsa-miR-3139] | 84.1% | -8.78% | -23.5% | 5.86% | 18.8% | 181% | – | – |
| UCAUAGCCCUGUACAAUGCUGCU [hsa-miR-103b] | 72.9% | -15% | -32.5% | 47.6% | 46.2% | 144% | – | – |
| UCUCCCUUGAGGGCACUUU [hsa-miR-4287] | -43.1% | 70% | 200% | 82.1% | 66% | -44.9% | – | – |
| UCUGCAGGGUUUGCUUUGAG [hsa-miR-1205] | 96.8% | -13.7% | -53.7% | 15.8% | 20.5% | 166% | – | – |
| UGAAUGGUAAAGCGAUGUCACA [hsa-miR-4790-3p] | 71.6% | -2.28% | -42.5% | 105% | 32.2% | 78.8% | – | – |
| UGGAGUCCAGGAAUCUGCAUUUU [hsa-miR-1289] | 78.3% | -9.57% | -51.8% | 68.1% | 20% | 130% | – | – |
| UGGCAAGGAAAGAAGAGGAUCA [hsa-miR-6809-5p] | 115% | -2.51% | -45.7% | 69.8% | 9.15% | 207% | – | – |
| UGGUCUGCAAAGAGAUGACUGU [hsa-miR-4527] | 104% | -1.79% | -39.4% | 67.3% | 12.3% | 151% | – | – |
| UGUGUGGAUCCUGGAGGAGGCA [hsa-miR-3911] | 70.3% | -10.6% | -47% | 53.8% | 12.9% | 129% | – | – |
| UUCUCCCACUACCAGGCUCCCA [hsa-miR-4713-5p] | -12.1% | 43% | 95.9% | 82.4% | 32.9% | -22.9% | – | – |
| UUGCACUUGUCUCAGUGA [hsa-miR-4325] | 70.8% | 3.45% | -30.4% | 104% | 15.7% | 84.2% | – | – |
| UUUGCAGUAACAGGUGUGAGCA [hsa-miR-6516-5p] | 80.3% | -19.1% | -40.6% | 48.6% | 23.8% | 142% | – | – |
| UUUGGGACUGAUCUUGAUGUCU [hsa-miR-3913-5p] | -47.3% | 61% | 132% | 84.5% | 69.2% | -50.6% | – | – |
